Data published in patent US9657062B2, “Ghrelin analogues” (Zealand Pharma A/S, priority 2012, dated 2017).
*1 amine or outer side, *2 acyl side, *3 side chain or, on linkers, in order; H or OH if unused. Bridges are numbered along the chain shown (N, C = ends). Side-chain parts run from the residue outwards. [ ]: non-standard residue; d: D form. The star is where a group is joined. γGlu = O=C(O)[C@H](CCC(=O)[*:2])N[*:1]; Palmitoyl = CCCCCCCCCCCCCCCC(=O)*; Octanoyl = CCCCCCCC(=O)*; Dap = NC[C@H](N)C(=O)O; Octyl = CCCCCCCC*

Target: human growth hormone secretagogue receptor type 1a (human, UniProt Q92847 1-366)
Sequence (Q92847 whole entry): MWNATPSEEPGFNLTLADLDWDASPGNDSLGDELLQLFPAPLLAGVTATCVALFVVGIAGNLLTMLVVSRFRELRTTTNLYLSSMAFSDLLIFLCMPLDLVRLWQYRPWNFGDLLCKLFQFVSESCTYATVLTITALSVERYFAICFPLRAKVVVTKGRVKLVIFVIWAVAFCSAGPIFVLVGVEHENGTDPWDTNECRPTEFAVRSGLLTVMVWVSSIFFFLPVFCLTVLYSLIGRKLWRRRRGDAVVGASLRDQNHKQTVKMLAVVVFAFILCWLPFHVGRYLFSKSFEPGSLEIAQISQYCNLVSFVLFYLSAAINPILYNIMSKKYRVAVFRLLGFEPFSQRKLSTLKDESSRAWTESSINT
Assay: cell-based or functional assay

Binder | EC50 (nM); Ca2+ induction in HEK293 cells stably expressing the human ghrelin receptor [nM]
H-GSS(Octanoyl)FLSPEHQRVQQRKESKEPPAKLQPR-OH (lactam 16-20; SMILES CCCCCCCC(=O)OC[C@H](NC(=O)[C@H](CO)NC(=O)CN)C(=O)N[C@@H](Cc1ccccc1)C(=O)N[C@@H](CC(C)C)C(=O)N[C@@H](CO)C(=O)N1CCC[C@H]1C(=O)N[C@@H](CCC(=O)O)C(=O)N[C@@H](Cc1c[nH]cn1)C(=O)N[C@@H](CCC(N)=O)C(=O)N[C@@H](CCCNC(=N)N)C(=O)N[C@H](C(=O)N[C@@H](CCC(N)=O)C(=O)N[C@@H](CCC(N)=O)C(=O)N[C@@H](CCCNC(=N)N)C(=O)N[C@H]1CCCCNC(=O)CC[C@@H](C(=O)N2CCC[C@H]2C(=O)N2CCC[C@H]2C(=O)N[C@@H](C)C(=O)N[C@@H](CCCCN)C(=O)N[C@@H](CC(C)C)C(=O)N[C@@H](CCC(N)=O)C(=O)N2CCC[C@H]2C(=O)N[C@@H](CCCNC(=N)N)C(=O)O)NC(=O)[C@H](CCCCN)NC(=O)[C@H](CO)NC(=O)[C@H](CCC(=O)O)NC1=O)C(C)C) [H-GS-S(octanoyl)-FLSPEHQRVQQRK()ESKE()PPAKLQPR-OH] | 1.29
H-PSS(Octyl)FLSPEHQRKQQRKESKKPPAKLQPR-NH2 (lactam 8-12; SMILES CCCCCCCCOC[C@H](NC(=O)[C@H](CO)NC(=O)[C@@H]1CCCN1)C(=O)N[C@@H](Cc1ccccc1)C(=O)N[C@@H](CC(C)C)C(=O)N[C@@H](CO)C(=O)N1CCC[C@H]1C(=O)N[C@H]1CCC(=O)NCCCC[C@@H](C(=O)N[C@@H](CCC(N)=O)C(=O)N[C@@H](CCC(N)=O)C(=O)N[C@@H](CCCNC(=N)N)C(=O)N[C@@H](CCCCN)C(=O)N[C@@H](CCC(=O)O)C(=O)N[C@@H](CO)C(=O)N[C@@H](CCCCN)C(=O)N[C@@H](CCCCN)C(=O)N2CCC[C@H]2C(=O)N2CCC[C@H]2C(=O)N[C@@H](C)C(=O)N[C@@H](CCCCN)C(=O)N[C@@H](CC(C)C)C(=O)N[C@@H](CCC(N)=O)C(=O)N2CCC[C@H]2C(=O)N[C@@H](CCCNC(=N)N)C(N)=O)NC(=O)[C@H](CCCNC(=N)N)NC(=O)[C@H](CCC(N)=O)NC(=O)[C@H](Cc2c[nH]cn2)NC1=O) [H-PS-S(O-octyl)-FLSPE()HQRK()QQRKESKKPPAKLQPR-NH2] | 0.365
H-PSS(Octyl)FLSPEHERVQKRKESKKPPAKLQPR-NH2 (lactam 10-14; SMILES CCCCCCCCOC[C@H](NC(=O)[C@H](CO)NC(=O)[C@@H]1CCCN1)C(=O)N[C@@H](Cc1ccccc1)C(=O)N[C@@H](CC(C)C)C(=O)N[C@@H](CO)C(=O)N1CCC[C@H]1C(=O)N[C@@H](CCC(=O)O)C(=O)N[C@@H](Cc1c[nH]cn1)C(=O)N[C@H]1CCC(=O)NCCCC[C@@H](C(=O)N[C@@H](CCCNC(=N)N)C(=O)N[C@@H](CCCCN)C(=O)N[C@@H](CCC(=O)O)C(=O)N[C@@H](CO)C(=O)N[C@@H](CCCCN)C(=O)N[C@@H](CCCCN)C(=O)N2CCC[C@H]2C(=O)N2CCC[C@H]2C(=O)N[C@@H](C)C(=O)N[C@@H](CCCCN)C(=O)N[C@@H](CC(C)C)C(=O)N[C@@H](CCC(N)=O)C(=O)N2CCC[C@H]2C(=O)N[C@@H](CCCNC(=N)N)C(N)=O)NC(=O)[C@H](CCC(N)=O)NC(=O)[C@H](C(C)C)NC(=O)[C@H](CCCNC(=N)N)NC1=O) [H-PS-S(O-octyl)-FLSPEHE()RVQK()RKESKKPPAKLQPR-NH2] | 0.155
RSFLSPEHQRVQQRKESKKPPAKLQPR (N-terminal Orn (ornithine, stands for X1 and X2 together); next residue Ser(O-octyl) (position 3 of the formula); C-terminal amide (-NH2)) [H-Orn-S(O-octyl)-FLSPEHQRVQQRKESKKPPAKLQPR-NH2] | 0.527
RSFLSPEHQRVQQRKESKKPPAKLQPR (N-terminal Ac-Orn (acetylated ornithine, stands for X1 and X2 together); next residue Ser(O-octyl) (position 3 of the formula); C-terminal amide (-NH2)) [Ac-Orn-S(O-octyl)-FLSPEHQRVQQRKESKKPPAKLQPR-NH2] | 1.4
H-PS[Dap](Octanoyl)FLSPEHQRVQRKESKKPPAKLQPR-NH2 [H-PS-Dap(N-octanoyl)-FLSPEHQRVQRKESKKPPAKLQPR-NH2] | 0.253
H-PSS(Octyl)FLSPEHQRVQRKESKKPPAKLQPR-NH2 (SMILES CCCCCCCCOC[C@H](NC(=O)[C@H](CO)NC(=O)[C@@H]1CCCN1)C(=O)N[C@@H](Cc1ccccc1)C(=O)N[C@@H](CC(C)C)C(=O)N[C@@H](CO)C(=O)N1CCC[C@H]1C(=O)N[C@@H](CCC(=O)O)C(=O)N[C@@H](Cc1c[nH]cn1)C(=O)N[C@@H](CCC(N)=O)C(=O)N[C@@H](CCCNC(=N)N)C(=O)N[C@H](C(=O)N[C@@H](CCC(N)=O)C(=O)N[C@@H](CCCNC(=N)N)C(=O)N[C@@H](CCCCN)C(=O)N[C@@H](CCC(=O)O)C(=O)N[C@@H](CO)C(=O)N[C@@H](CCCCN)C(=O)N[C@@H](CCCCN)C(=O)N1CCC[C@H]1C(=O)N1CCC[C@H]1C(=O)N[C@@H](C)C(=O)N[C@@H](CCCCN)C(=O)N[C@@H](CC(C)C)C(=O)N[C@@H](CCC(N)=O)C(=O)N1CCC[C@H]1C(=O)N[C@@H](CCCNC(=N)N)C(N)=O)C(C)C) [H-PS-S(O-octyl)-FLSPEHQRVQRKESKKPPAKLQPR-NH2] | 0.33
H-PS[Dap](Octanoyl)FLSPK-NH2 (SMILES CCCCCCCC(=O)NC[C@H](NC(=O)[C@H](CO)NC(=O)[C@@H]1CCCN1)C(=O)N[C@@H](Cc1ccccc1)C(=O)N[C@@H](CC(C)C)C(=O)N[C@@H](CO)C(=O)N1CCC[C@H]1C(=O)N[C@@H](CCCCN)C(N)=O) [H-PS-Dap(N-octanoyl)-FLSPK-NH2] | 0.364
H-GSSFLSPEHQKAQQRKESKKPPAKLQPR-OH [rat ghrelin without octanoyl moiety at position 3] | > 1000
H-PSS(Octyl)FLSPK-NH2 (SMILES CCCCCCCCOC[C@H](NC(=O)[C@H](CO)NC(=O)[C@@H]1CCCN1)C(=O)N[C@@H](Cc1ccccc1)C(=O)N[C@@H](CC(C)C)C(=O)N[C@@H](CO)C(=O)N1CCC[C@H]1C(=O)N[C@@H](CCCCN)C(N)=O) [H-PS-S(O-octyl)-FLSPK-NH2] | 0.388
H-PS[NH‑CH(n-C10H21)‑C(O)]FLSPK-NH2 [H-PS-[NH-CH(n-C10H21)-C(O)]-FLSPK-NH2] | 0.432
H-PS[Dap](Octanoyl)FLSPY-NH2 (SMILES CCCCCCCC(=O)NC[C@H](NC(=O)[C@H](CO)NC(=O)[C@@H]1CCCN1)C(=O)N[C@@H](Cc1ccccc1)C(=O)N[C@@H](CC(C)C)C(=O)N[C@@H](CO)C(=O)N1CCC[C@H]1C(=O)N[C@@H](Cc1ccc(O)cc1)C(N)=O) [H-PS-Dap(N-octanoyl)-FLSPY-NH2] | 0.195
H-PSS(Octyl)FLSPEHQRVQQRKESK([γGlu-Palmitoyl])KPPAKLQPR-NH2 (SMILES CCCCCCCCCCCCCCCC(=O)N[C@@H](CCC(=O)NCCCC[C@H](NC(=O)[C@H](CO)NC(=O)[C@H](CCC(=O)O)NC(=O)[C@H](CCCCN)NC(=O)[C@H](CCCNC(=N)N)NC(=O)[C@H](CCC(N)=O)NC(=O)[C@H](CCC(N)=O)NC(=O)[C@@H](NC(=O)[C@H](CCCNC(=N)N)NC(=O)[C@H](CCC(N)=O)NC(=O)[C@H](Cc1c[nH]cn1)NC(=O)[C@H](CCC(=O)O)NC(=O)[C@@H]1CCCN1C(=O)[C@H](CO)NC(=O)[C@H](CC(C)C)NC(=O)[C@H](Cc1ccccc1)NC(=O)[C@H](COCCCCCCCC)NC(=O)[C@H](CO)NC(=O)[C@@H]1CCCN1)C(C)C)C(=O)N[C@@H](CCCCN)C(=O)N1CCC[C@H]1C(=O)N1CCC[C@H]1C(=O)N[C@@H](C)C(=O)N[C@@H](CCCCN)C(=O)N[C@@H](CC(C)C)C(=O)N[C@@H](CCC(N)=O)C(=O)N1CCC[C@H]1C(=O)N[C@@H](CCCNC(=N)N)C(N)=O)C(=O)O) [H-PS-S(O-octyl)-FLSPEHQRVQQRKES-K(hexadecanoyl-isoGlu)-KPPAKLQPR-NH2] | 0.496
H-PS[Dap](Octanoyl)FLSPEHSRVSSRKESK([γGlu-Palmitoyl])KPPA-NH2 (SMILES CCCCCCCCCCCCCCCC(=O)N[C@@H](CCC(=O)NCCCC[C@H](NC(=O)[C@H](CO)NC(=O)[C@H](CCC(=O)O)NC(=O)[C@H](CCCCN)NC(=O)[C@H](CCCNC(=N)N)NC(=O)[C@H](CO)NC(=O)[C@H](CO)NC(=O)[C@@H](NC(=O)[C@H](CCCNC(=N)N)NC(=O)[C@H](CO)NC(=O)[C@H](Cc1c[nH]cn1)NC(=O)[C@H](CCC(=O)O)NC(=O)[C@@H]1CCCN1C(=O)[C@H](CO)NC(=O)[C@H](CC(C)C)NC(=O)[C@H](Cc1ccccc1)NC(=O)[C@H](CNC(=O)CCCCCCC)NC(=O)[C@H](CO)NC(=O)[C@@H]1CCCN1)C(C)C)C(=O)N[C@@H](CCCCN)C(=O)N1CCC[C@H]1C(=O)N1CCC[C@H]1C(=O)N[C@@H](C)C(N)=O)C(=O)O) [H-PS-Dap(N-octanoyl)-FLSPEHSRVSSRKES-K(hexadecanoyl-isoGlu)-KPPA-NH2] | 0.566
H-PSS(Octyl)FLSPEHSRVSSRKESSKPPAKLSPR-NH2 (SMILES CCCCCCCCOC[C@H](NC(=O)[C@H](CO)NC(=O)[C@@H]1CCCN1)C(=O)N[C@@H](Cc1ccccc1)C(=O)N[C@@H](CC(C)C)C(=O)N[C@@H](CO)C(=O)N1CCC[C@H]1C(=O)N[C@@H](CCC(=O)O)C(=O)N[C@@H](Cc1c[nH]cn1)C(=O)N[C@@H](CO)C(=O)N[C@@H](CCCNC(=N)N)C(=O)N[C@H](C(=O)N[C@@H](CO)C(=O)N[C@@H](CO)C(=O)N[C@@H](CCCNC(=N)N)C(=O)N[C@@H](CCCCN)C(=O)N[C@@H](CCC(=O)O)C(=O)N[C@@H](CO)C(=O)N[C@@H](CO)C(=O)N[C@@H](CCCCN)C(=O)N1CCC[C@H]1C(=O)N1CCC[C@H]1C(=O)N[C@@H](C)C(=O)N[C@@H](CCCCN)C(=O)N[C@@H](CC(C)C)C(=O)N[C@@H](CO)C(=O)N1CCC[C@H]1C(=O)N[C@@H](CCCNC(=N)N)C(N)=O)C(C)C) [H-PS-S(O-octyl)-FLSPEHSRVSSRKESSKPPAKLSPR-NH2] | 0.359
